Our source for the screen value (% Luminescence (RLU)) values is PMC7363588, “Mapping of the FGF14:Nav1.6 complex interface reveals FLPK as a functionally active peptide modulating excitability” (Physiological Reports, 2020).

B1: CLuc-FGF14 [human] / CD4-Nav1.6 C-tail-NLuc [human] (parent)
chain 1: MVKPVPLFRRTDFKLLLCNHKDLFFLRVSKLLDCFSPKSMWFLWNIFSKGTHMLQCLCGKSLKKNKNPTDPQLKGIVTRLYCRQGYYLQMHPDGALDGTKDDSTNSTLFNLIPVGLRVVAIQGVKTGLYIAMNGEGYLYPSELFTPECKFKESVFENYYVIYSSMLYRQQESGRAWFLGLNKEGQAMKGNRVKKTKPAAHFLPKPLEVAMYREPSLHDVGETVPKPGVTPSKSTSASAIMNGGKPVNKSKTT
chain 2: IVVNMYIAIILENFSVATEESADPLSEDDFETFYEIWEKFDPDATQFIEYCKLADFADALEHPLRVPKPNTIELIAMDLPMVSGDRIHCLDILFAFTKRVLGDSGELDILRQQMEERFVASNPSKVSYEPITTTLRRKQEEVSAVVLQRAYRGHLARRGFICKKTTSNKLENGGTHREKKESTPSTASLPSYDSVTKPEKEKQQRAEEGRRERAKRQKEVRESKC

The variants in the experiment derive from B1. The experiment can be described thus: split-luciferase complementation assay (LCA) in HEK293 cells. The conditions noted are these: with CD4-Nav1.6 C-tail-NLuc [human], DMSO vehicle control of the same pair = 100, read off a plot.

For the variant chain 1 MVKPVPLFRRTDFKLLLCNHKDLFFLRVSKLLDCFSPKSMWFLWNIFSKGTHMLQCLCGKSLKKNKNPTDPQLKGIVTRLYCRQGYYLQMHPDGALDGTKDDSTNSTLFNLIPVGLRVVAIQGVKTGLYIAMNGEGYLYPSELFTPECKFKESVFENNYNIYSSMLYRQQESGRAWFLGLNKEGQAMKGNRVKKTKPAAHFLPKPLEVAMYREPSLHDVGETVPKPGVTPSKSTSASAIMNGGKPVNKSKTT [chain 1 Y158N V160N], the screen value (% Luminescence (RLU)) runs as follows: (EYYV peptide 50 µM present) 79; (FLPK peptide 50 µM present) 100; (PLEV peptide 50 µM present) 72.

Consider chain 1 MVKPVPLFRRTDFKLLLCNHKDLFFLRVSKLLDCFSPKSMWFLWNIFSKGTHMLQCLCGKSLKKNKNPTDPQLKGIVTRLYCRQGYYLQMHPDGALDGTKDDSTNSTLFNLIPVGLRVVAIQGVKTGLYIAMNGEGYLYPSELFTPECKFKESVFENYYAIYSSMLYRQQESGRAWFLGLNKEGQAMKGNRVKKTKPAAHFLPKPLEVAMYREPSLHDVGETVPKPGVTPSKSTSASAIMNGGKPVNKSKTT [chain 1 V160A], for which the screen value (% Luminescence (RLU)) by setting is: (EYYV peptide 50 µM present) 93; (FLPK peptide 50 µM present) 91; (PLEV peptide 50 µM present) 94.

For chain 1 MVKPVPLFRRTDFKLLLCNHKDLFFLRVSKLLDCFSPKSMWFLWNIFSKGTHMLQCLCGKSLKKNKNPTDPQLKGIVTRLYCRQGYYLQMHPDGALDGTKDDSTNSTLFNLIPVGLRVVAIQGVKTGLYIAMNGEGYLYPSELFTPECKFKESVFENAYVIYSSMLYRQQESGRAWFLGLNKEGQAMKGNRVKKTKPAAHFLPKPLEVAMYREPSLHDVGETVPKPGVTPSKSTSASAIMNGGKPVNKSKTT [chain 1 Y158A], the screen value (% Luminescence (RLU)) runs as follows: (EYYV peptide 50 µM present) 100; (FLPK peptide 50 µM present) 87; (PLEV peptide 50 µM present) 110.

Take chain 1 MVKPVPLFRRTDFKLLLCNHKDLFFLRVSKLLDCFSPKSMWFLWNIFSKGTHMLQCLCGKSLKKNKNPTDPQLKGIVTRLYCRQGYYLQMHPDGALDGTKDDSTNSTLFNLIPVGLRVVAIQGVKTGLYIAMNGEGYLYPSELFTPECKFKESVFENAYAIYSSMLYRQQESGRAWFLGLNKEGQAMKGNRVKKTKPAAHFLPKPLEVAMYREPSLHDVGETVPKPGVTPSKSTSASAIMNGGKPVNKSKTT [chain 1 Y158A V160A]: the screen value (% Luminescence (RLU)) stood at 100 (EYYV peptide 50 µM present), 99 (FLPK peptide 50 µM present) and 110 (PLEV peptide 50 µM present).
